Target: rYbx1 (wild type) (Danio rerio (zebrafish)) (UniProt B5DE31)
Test: EMSA
Details: RNA EMSA; binding buffer and temperature not given; extract lysis buffer 20 mM Tris pH 8.0, 100 mM NaCl, 0.1 mM EDTA, 1 mM 6-aminohexanoic acid, 1 mM PMSF, 25% …

Sequence of rYbx1 (wild type) (Danio rerio (zebrafish)) (B5DE31 whole entry): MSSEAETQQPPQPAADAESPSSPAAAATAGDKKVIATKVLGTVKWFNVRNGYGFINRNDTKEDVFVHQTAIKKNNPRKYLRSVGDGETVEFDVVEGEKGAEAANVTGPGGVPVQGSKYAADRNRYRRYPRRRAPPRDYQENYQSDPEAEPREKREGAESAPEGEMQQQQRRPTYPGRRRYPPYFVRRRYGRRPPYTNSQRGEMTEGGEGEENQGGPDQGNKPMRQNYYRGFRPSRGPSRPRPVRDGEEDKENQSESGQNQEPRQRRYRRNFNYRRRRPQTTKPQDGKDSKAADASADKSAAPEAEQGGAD

## GGGAGAACAAUUUUUCUUUUUUUAGGUGUGGAUUAAUGCAAAAUUAGGCUUCUUUUUAGAUGCAGAGAAUGUGCAUGUAGAUGCUGUUAAAGUAACUUUUUAUAAU [vg1.2 probe]
  binding: no binding

## GGGAGAAGUGGAUGCAGAUGAACAUGACUUAAUUUUUAAAUGCACAAUUUGUUUAUUACAAUUUUUCUUUUUUUAGGUGUGGAUUAAUGCAAAAUUAGGCUUCUUUU [vg1.1 probe]
  binding: no binding

## GGGAGACCGGCCGCACAACCAUUCACGCAAAAGACAACACACGCGUCGUGGAUGAAGUAAUCCUCUUUGCAAAUAUGUAAAGCUGUAUAUUUCUAAUGUAAAUA [wnt8a.1 probe]
  binding: no binding

## GGGAGAGAUGCAGAGAAUGUGCAUGUAGAUGCUGUUAAAGUAACUUUUUAUAAUUCAUUGUAAUGUAAUAAUAAAAACUUUUACUAUGGGAUUCCUUUUUUUUC [vg1.3 probe]
  binding: no binding

## GGGAGAUAUUUUAUGAGAUUUUAAGAUAUAAUUUUCUGUAUAUUUCUGCAAGCAAAAUGUAAAUUGACGCUCUAUAUAAGACACAUGGGCUUUCUCGUUCCCAC [wnt8a.2 probe]
  binding: no binding

## GGGAGAUGUCAAUUGAAUUCAUUGAAGUUCUAUUUUGAAGUUCAUUAUUUGCACUUUUUCGUUCUCGACAUAAGAUCACAGAUUUUGUUGCUCUCAAAAAAUGU [wnt8a.3 probe]
  binding: no binding

## GGGAGAUUGUAUUUUUUCAUGCACAGAUCACUUGACAGUAUGCAGUGUUUCACGAUGAGGUUUAAAUGUUGUGUUUUAUGGAACUUAUUUAAGGCAAAUAUUUU [wnt8a.4 probe]
  binding: no binding

Source: PMC3771576
